# Results from the nanobody polyreactivity screen of Harvey et al. (2022).
# Experiment: yeast display, Sf9 membrane polyspecificity reagent, FACS + sequencing; frameworks hold sequencing errors
# Method in brief: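 Using colony PCR, genes from sorted yeast display clones were amplified, then sequenced on MiSeq at 2 × 250 and filtered by CDR length. The clones had been stained with 10% biotinylated, detergent-solubilized Sf9 membrane reagent for 1 hour at 4 °C and sorted by FACS into low and high (top ~1%) gates on anti-HA and streptavidin fluorescence. Polyreactivity labels come from the gate of origin.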
row,Sequence,polyreactivity (PSR sort gate)
1,QVQLVESGGGLVQAGGSLRLSCAASGLTFYSYAMGWSRQAPGKERELVAAISKSGGSTFYADSVKGRFTISRDNAKNTVYLQMNSLKPEDTAVYYCNARRRHEGSPPYGYWGQGTQVTVSS,high polyreactivity
2,QVQLVESGGGLVQAGGSLRLSCAASGFIFSLYAMGWYRQAPGKERELVAVITWSDGRTYYADSVKGRFTISRDNAKNTVYLQMNSLKQEDTAVYYCAAADWITEYDYWGQGTQVTVSS,low polyreactivity
3,QVQLVESGGGLVQAGGSLRLSCAASGITFDNNAMGWYRQAPGKEREFVADIDGSGGSTYYADSVKGRFTISRDNAKNTVYLQMNSLKPEDTAVYYCNAGYVHSFDYWGQGTQVTVSS,low polyreactivity
4,QVQLVESGGGLVQAGGSLRLSCAASGSTFLYYAMGWYRQAPGKERELVAVISWSGVSTYYADSVKGRFTISRYNAKNTVYLQMNSLKPEDTAVYYCNTGNHYIRTYGYWGLGTQVTVSS,low polyreactivity
5,QVQLQESVVGLVLAGGSLRLICSASANISVYGSMGWYRKAPGKEREFVATIDPGTNTNYADSVKDRFTISRDNAKNTVFLQINSLKPEYTAVYYCAVEGGSDWPYRYWGQGTQVTVSS,low polyreactivity
6,QVQLVESRRGLVQAGASLRLSCAASGSTFYGYGMGWYRQAPGKERELVAAITGSGDTTYYADSVKGRFTISRDNAKNTVYLQMNSLKPEDTAVYYCNARWHAEYDYWGQGTQVTVSS,low polyreactivity
7,QVQLVESGGGLVQAGGSLRLSCAASGFTFVGNAMGWYRQAPGKERELVAAIRWSSGSTYYADSVKGRFTISRDNAKNTVYLQMNSLKPEDTAVYYCNAVYSVFYEYDYCGQGTQVTVSS,low polyreactivity
8,QVQLVESGGGLVQAGGRLRLSCAASGSTFAINAMGWYRQAPGKERELVAAITWSGGSTYYADSVKGRFTISRDNAKNTVYLQMNSLKPEDTAVYYCNAKSYRHLLYIPYKYNYWGQGTQVTVSS,high polyreactivity
9,QVQLQESGGGMVQAGGSLRLSCAASGYISWADYMVWYRQAPGKERELVAGIGYGSTTYYADSVKGRFTISRANAKNTAYLQMNSLKPEDTAVYYCAVGWYRDTAYKYWGQGTQVTVSS,low polyreactivity
10,QVQLVESGGGLVQAGGSLRLSCAASGRIIYKNAMGWYRQAPGKERELVAAITSSGGSTYYADSVKGRFTISRDNAKNTVYLQMNSLKPEDTAVYYCAAYAYGRFGKLNYWGQGTQVTVSS,low polyreactivity
11,QVQLVESGGGLVQAGGSLRLSSAASGRTFAWNAMGWYRQAPGKERELVAAISYNGGRTYYADSVKGRFTISRDNAKNTVYLQMNSLKPEDTAVYYCAAQRYGYWGQGTQVTVSS,high polyreactivity
12,QVQLVESGGGLVQAGGSLRLSCAASGSIFRYYAMGWYRQAPGKERELVARISSGGSTYYADSVKGRFTISRDNAKNTVYLQMNSLKPEDTAVYYCNAGAPARYWWEGDYWGQGTQVTVSS,high polyreactivity
13,QVQLVESGGGLVQAGGSLRLSCAASGSTFKRNAMGWYRQAPGIERELVAAISYSGGSTYYADSMKGRFTISRDNAKNTVYLQMNSLKPEDTAVYYCWGPGTQVTVSS,low polyreactivity
14,QVQLVESGGGLVQAGGSLRLSCAASGSTFIFYAMGWYRQAPGKERELVASITSRAASTYYADSVKGRFTFSRDNAKNTVYFQMNSLKPEVTAVYYCAANFSYTLFWWSSFLLYVYWGQGTQVTVSS,low polyreactivity
15,QVQLVESGGGLVLAGGSLRLSCAASGRIFSYYAMGWYRQAPGQERELVAAISWNGGSTYYADSVKGRFTISRDNAKNTVYLQMNSLKPEDTAVYYCAVLPHYEYDYWGQGTQVTVSS,high polyreactivity
16,QVQLVESGGGLVQAGGSLRLSCAASGRIFSSYAMGWYRQAPGKERELVAAISRGGSTYYADSVKGRFTISRDNAKNTVYLQMNSLKPEDTAVYYCAAASYSYSERRYYYWGQGTQVTVSS,high polyreactivity
17,QVHLVESGGGLVQAGRSLRLSCAASGITFVKYAMGCYIQAPGKEMELVATISNSGGSTYYSDSVKGRFTISRDNAKNSVYLQMNSLKPEETAVYYCNALYLVYCDDSSPSLVSEYGYWGQGTQVTVSS,low polyreactivity
18,QVQLVESGGGLVQAGGSLRLSCAASGRIFLTYVMGWYRQAPGKERELVAAITSSGGTTYYADSVKGRFTISRDNAKNTVYLQMKSLKPEDTAVYYCNAGSSYQYGPRYNYWGQGTQVTVSS,low polyreactivity
19,QVQLVESGGGLVQAGGSLRLICAASGSNFVGYAMGWYRQAPGKERELVAAISRTGASTYYADSVKGRFTISRDNAKNTVYLQMNSLKPEDTAVYYCAYYYSIYDYWGQGTQVTVSS,high polyreactivity
20,QVQLVVSGGGLVQAGGSLRLSCAASGRIFYTYAMGWYIQAPGKERELVATITDGGSTYYADSVKVRFTISRDNAMNNVYLQMNILKPEDTAVYYCAADAYQWYDWGQGTHVTVSS,low polyreactivity
21,QVQLVESGGGLVQAGGSLRLSCAASGSTFSNYAMGWYRQAPGKERELVASISNGGSTNYADSVKGRFTISRDNAKNTVYLQMNSLKPEDTAVYNCNAESKAKYDYWGQGTQVTVSS,low polyreactivity

row,Sequence,polyreactivity (PSR sort gate)
1,QVQLVESGGGLVQAGGSLRLSCAASGRTFYRYTMGWYRQAPAKERELVAAISWSGGSTYYADSVKGRFTISRDNAKNTVYLQMNSLKPEDTAVNYCAKATYWLYVQWYTYGYWGQGTQVTVSS,high polyreactivity
2,QVQLVESGGGLVQAGGSLRLSCAASGRIFYYYAMGWYRQAPGKERELVAAITWSGVNTYYADSVKGRFTISRDNAKNTVYLQMNSLKPEDTAVYYCATDTGYPYSYDLYDSYYWGQGTQVTVSS,low polyreactivity
3,QVQLVESGGGLVQAGGSLRLSCAASGRTFLTYAMGWYRQAPGKERELVAAISSSGVRTYYADSVKGRFTISRDNAKNTVYLQMNSLKPEDTAVYYCAAVGTGSSLRYDYWGQGSQVTVSS,high polyreactivity
4,QVQLVESGGGLVQAGGSLRLSCAASGTIFRWYAMGWYRQARGKEREFVAAITSSGGSTYYADSVKGRFTISRDNAKNTVYLQMNSLKPEDTAVYYCAARGWTANYEMDHWGQGTQVTVSS,high polyreactivity
5,QVQLVESGGGLVQAGGSLRLSCAASGSIFYYNAMGWYRQAPGTERELVAAITSSGGSTYADSVKGRFTISRDNAKNTVYLQMNSLKPEDTAVYYCATVAHGLWSGSGYIYAYDYWGQGTQVTVSS,low polyreactivity
6,QVQLVESGGGLVQAGGSLRLSCAASGRTFSFYAMGWYRQAPGKERELVAGIDWDDGSTSYADSVKGRFTISRDNAKNTVYLQMNSLKPEDTAVYYCAAGPYAGVDPGDYYYWGQGTQVTVSS,low polyreactivity
7,QVQLVESGGGLVQAGGSLRLSCAAYGRTFNPYAMGWYRQAPGKERELVARITWSGGRTYYADSVKGRFTISRDNAKNTVYLQMNSLKPEDTAVYYCAARYSKYLYGRFESWGQGTQVTVSS,high polyreactivity
8,QVQLVESGGGLVQAGGSLRLSCAASGLTFGYYAMGWYRQAPGKERELVAVISGGGGTHYADSVKGRFTISRDNAKITVYLQMNSLKPEDTAVYYCAARYRAQQIARYYYWGQGTQVTVSS,high polyreactivity
9,QVRLIESGGGLVQAGGSLRLSCAASGFTFFGNAMGWYRQAPGKERELVASISGSGTRTYYADSVKGRFTISRDNAKNTVYLQMNSLKPEDTAVYYCAARGSYSHGINYYWGQGTQVTVSS,high polyreactivity
10,QVQLVESRGGIVQAGGSLRLSCAASGSIFEQYAMGLYRQAPGKERELVAAISKRGTSTNYADSVKGRVTISRDNAKNTVYLQMNSLKPEDTAVYYCNADSRHRRNYDYWGQGTHVTVSS,high polyreactivity
11,QVQLVESGGGLVQAGGSLRLSCAASGYTFRYAMGWYRQAPGKERELVAAISSRGSSTYYADSVKGRFTISRDNAKNTVYLQMNSLKPEDTAVYYCAAKHFVKGDYWGQGTQVTVSS,high polyreactivity
12,QVQLVESGGGLVQAGGSLRLSCAASGFIFIRYAMGWYIQAPGKERELVASSTGRGGSTYYADSVKVRFTISRDNAKNTVYLQMNSLKPEDTAVYYCAAYYRYPTGWRWGGYYLYDYWGQGTQVTVSS,high polyreactivity
13,QVQLVESGRGLVQAGGSLRISCAASGLILYTYAMGWYRQAPGKERELVAAITKSGGRTYYADSVKGRFTISRDNAKNTVYLQMNSLKPEDTAVYDCAARPYSRPYSFGFYYWGQGTQVTVSS,high polyreactivity
14,QVQLVESGGGLVQAGGTLRLTCAASGFTLTRNAMGWYRQAPGKERELVAAISRSGGSTYYADSVKGRFTISRDNAKNTVYLQMNSLKPEDTAVYYCAADDKYFYPGNGYWGLGTQVTVSS,high polyreactivity
15,QGQLVESGGGLVQAGGSLRLSCAASGSIFVLNAMGWYRQAPGKERELVAAISGGSTNYADSVKGRFTISRDNAKNTVYLQMNSLKPEDTAVYYCAARARRRYYYWGQGTQVTVSS,high polyreactivity
16,QVQLVESGGGLVQAGGSLRLSCADSGFNFKYYAMGWYRQAPGKERELVATITSRGGSTYYADSVKGRFTISRDNAKNTVYLQMNSLKPEATAVYYCNARSSSPGKYGYWGQGTQVTVSS,high polyreactivity
17,QVHLVESGGGLVQAGGSLRLSCAASGSIFTRYVMGWYRQAPGKERELVAAISWSGGSTYYADSVKGRFTISRDNAKNTVYLQMNSLKPEDTAVYYCAAYYWYWSAAWWDEGEMEYWGQGTQVTVSS,high polyreactivity
18,QVQLVESGGGLVQAGGSLRLSCAASGLIFPYYAMGWYRQAPGKERELVATITRSGGNTYYADSVKGRFTISRDNAKNTVYLQMNSLKPEDTAVYYCATRYAGYRSYGYWGQGTQVTVLS,high polyreactivity
19,QVQLVESVGGLVQAGGSLSLSCAASGIIFVPYAMVWYRQAPGKERELVAAISSGGSTDYADSVKGRFTISRDNAKNTVYLQMNSLKPEDTAVYYCNKYYRGIFKAHRDYWGQGTQVTLSS,low polyreactivity
20,QVQLVESGGGLVQAGGSLRLSCAASGLIFWKYARGWYRQAPGKERELVAAIRKSVGSTYYADSVKGRFTISRDNAKNTVYLQMNSLKPEDTAVYYCAAVNAGVGSPVKRDYWGQGTQVTVSS,high polyreactivity
